Experimental data reported in the DeepSol protein solubility set.

Assay: soluble on expression in E. coli; label from the status in PepcDB or PDB records

Sequence | soluble on expression in E. coli
MAGDQELELRFDVPLYTLAEASRYLVVPRATLATWADGYERRPANAPAVQGQPIITALPHPTGSHARLPFVGIAEAYVLNAFRRAGVPMQRIRPSLDWLIKNVGPHALASQDLCTDGAEVLWRFAERSGEGSPDDLVVRGLIVPRSGQYVFKEIVEHYLQQISFADDNLASMIRLPQYGDANVVLDPRRGYGQPVFDGSGVRVADVLGPLRAGATFQAVADDYGVTPDQLRDALDAIAA | soluble
MPSPSGGWGCGGTWARGVDGARLFSIHHQAVRPNLSTISPPKEPPMIEVRHLCKSFARKPAVQDISFSIPAGEIVGYLGPNGAGKSTTIKVLTGLLVPDSGEVRVGGLVPWKQRRQHVARLGAVFGQRTTLWWDLPVRESLELLRHVYRVPAARFAENLAGFTELLELGPFLNTPARALSLGQRMRADLAAALLHDPELLFLDEPTVGLDVVAKERIREFVKAVNAERGVTVLLTTHDLGDVERLARRVMMIDTGRLLFDGPLAELQARYGGERELWVEFEKAPAQPALPGLTLLGQDGPRVRYGFSGAAAAPIAQVTALAPVRDLAVKEPEVEATIRRIYEGNLLGSRSVREGLEHHHHHH | not soluble
MSEFFIQEQQLGKVTRTIVKDQAGRSLFLLVGRWGTRGDALSLYAMNGEILASIKQVSWTFGTRFELYQRFEKVGTLRKLFNLNADFYYVQGLHWAVVGDIKAHQYSIYQVHKKIMSMDKTMLCTGDYFVLTVANDEDAPLCICIAAVLDYWLYNKKKQKTSDDFGLDFDPLTD | not soluble
ADKAASGVLTKLPQKQIQEMKEAFSMIDVDRDGFVSKEDIKAISEQLGRAPDDKELTAMLKEAPGPLNFTMFLSIFSDKLSGTDSEETIRNAFAMFDEQETKKLNIEYIKDLLENMGDNFNKDEMRMTFKEAPVEGGKFDYVKFTAMIKGSGEEEA | soluble
MSLSSASSKRSVMTLFSNKDDIYCHQVKIVLAEKGVLYENAEVDLQALPEDLMELNPYGTVPTLVDRDLVLFNSRIIMEYLDERFPHPPLMQVYPVSRAKDRLLMLRIEQDWYPTLAKAENGTEKEKTSALKQLKEELLGIAPIFQQMPYFMNEEFGLVDCYVAPLLWKLKHLGVEFTGTGSKAIKAYMERVFTRDSFLQSVGEAAPKNLMDDKEGHHHHHH | soluble
MLLDKLSRPLKVLRISLTDRCNLRCNFCMPPGKEYNFLPKRQLLTPEEIEEYVKIFAKLGVEKVRLTGGEPLLREDLEEIIQRISKVEGIKDIALTTNGVFLKERLKALKEAGLKRITVSVHSLNPEKNQKLVNRSVNLGEVFEVIIRAKELGFKVKVNSVIIKGFNDDEILDLARFFKNLGVTLRFIEYMDVGTVNDWDFSKVVSADEILNLMKKEFTFYPLPKRPEDTSMDFIYEDGNKFGIIASVTKPFCRGCNRIRLSADGKLYTCLFSDKGHDLRNAVDKENFIKEVWKDRKDRYSELRRQMKRERKVEMFKVGGLEHHHHHH | not soluble
MQKAKNDYGTVVSVLKEDFHGFATGSIGAPDLNTVLTYAFPGECEYPWINFKPGYTQQQGWGGANVWQAGGTVCLNADGENFSHLNTPMLNVSGYQNIAIVRFDGVSDSLFSCLIREIRTLPSFASMPVRRKEWPIRL | not soluble
MRYLDAEAIENIATGAAFLGTGGGGDPYIGKMMALSAIEENGPVKLVSPEEIAAEDFFLPAAMMGAPSVAIEKFPKGDEFVRVFEKLGKYLDQETIAGTFPMEAGCVNSMIPIVVAAKLGIPLVDCDGMGRAFPELPMVTFHLNGMSATPMAITDEKGNIGIMETIDNTWTERLARVQTVEMGASALVSIYPATGKQLQDYGIHNIVTLSEEIGKVIRGTYADEQEKRQALVEVTDGFELFQGKILDVEREVKGGFNLGRVKLSGLNSDAGSEAVVHFQNENLIAEKDGQVIAMTPDLICMVDLETLTPVTTESLKYGKRVQVMGLKANAAWRTKKGIETVGPRYFGYEMDYQPLENLVAKEDKLEHHHHHH | soluble
MSLRCPTCQYNGTRVVDSRPADDGNSIRRRRECEKCGFRFTTFEKVEESPLIVVKKDGAREEFAREKVRRGLIRACEKRPVSAEQIEEIVNEVERELRNIGDSEIASDLIGEKVMNKLANLDEVAYVRFASVYRQFKDISVFVEELKDLMEKNKEGHHHHHH | soluble
MWRKLTIIVVLLCLAGYAAYEQFGKSDQAAQGEQEKSEAAMKEMIASNGIEIGKSAPDFELTKLDGTNIKLSDLKGKKVILNFWATWCGPCQQEMPDMEAFYKKHKDNVEILAINYTPSEKGGGVEKVSNFAKEKGITFPILLDKNIDVTTAYKVITIPTSYFIDTKGVIQDKFIGPMTQKEMEKRIAKLK | not soluble
GSPDPEIFRQRFRQFGYQDSPGPREAVSQLRELCRLWLRPETHTKEQILELVVLEQFVAILPKELQTWVRDHHPENGEEAVTVLEDLESELDD | soluble
MRRGSGNPERPSLSRDGLRVPPPCPGKRGPGHFSGYHGGMEGIRRAAQRAAEEFLQAFPMAPGSLFVLGGSTSEVLGERVGTRPSLEAAHAVLEGLLPPLLERGVHVAVQACEHLNRALVVERETARAFGLEEVAVFPHPKAGGALATAAFLRFRDPVMVESLKAQAHGGMDIGGVLIGMHLRPVAVPLRLSVRKIGEAVLLAAKTRPKLVGGARAVYTREEMLKKLEEFLPKPP | soluble
MSLKAAVLHGTNDMRFEDIEIKPCESDEVKIKVMAAGICGSDPPRVLKHWKYPVPAIPGHEFSGVIAEVGKDVKNVKVGDRVVAIPFIPCNECEYCKRGLFSLCDDHGMLGAKSFGAFAEYVNIKATNVLPIGDMDFEDAAMIEPLAVAMHGVLNIGVQVGDTVAVMGSGTMGQLVIQGLKIAGAGTIIAVDISDNKLRESKELGADIIINAKDINPVEKIKELTGGKGVDIALECAGSKITQEQCLLITKKKSKIGFLGIAYSDITLSEEAFENIFRKELELKGFWNSYSAPFPGQEWTKGINLVNEGKIKLKEMVSHRFSLEDTYKAFEMIRDRKEEFNKILILPQGVEGHHHHHH | soluble
MSLEVISLSEKKGFNFNIIKNDPLDGHKGTNIGSISLDNIAPVFIDVANKEAFIDIGGMHARAKVEKGVKWITDKAAVEGDEAKEYWLCWVTTERNEQGPYYAGLTACYLLVNKAIRRGYKSMPEHVNMMDKSMKHHIIIDQIGDENKAILKDFLMNHDEGMWKHSSDALHQAFNEGHHHHHH | soluble
MSPAYLCARPRTRASVTFRPTCGVNLPFHADRARTVSTSTNSATVLWLGYQAPNSISTAVSGAVANHAAKDLQKFQTALQSRNPDQRKVVIGYSYGSTVAGKAASSSELDVRARHFRGDGYSIALNNAVEIKGLEHHHHHH | not soluble
EVVVTGMQKMDKRLFTGATQQLTADNVKLDGLPDISRGLEGRAAGVSVQNVSGTFGTAPKIRVRGATSIYGSSKPLWVVDGVIMEDAIDVGPDDLSSGDAETLISSAIAGLNSDDIESFQILKDGSATSIYGARAMAGVIVVTTKKGK | not soluble
MAGRKSSRTAERVPTTQKPERKSAILSPHDELRERLLETAIDMKENIPQRNTRNSSVGSQKSDCSETRKRRSTKEGPAAKRHSGEKHRNGSREDSLEYISDDREVGSSSSQSSRTRGQPLPAMPEEEEVFDKSSSSDNLAESEESHEMVRLEERQDIEEEIEDDFDDEEEDVVNDKEEYEEIESEDEDDYPVQNEGFAVTKRLMNDEHMVTAPTFLSTAKCDGIGSPTKVWSLMVKRDEIPRATRFLLGNHPDMDDEKRRILIDWMMEVCESEKLHRETFHLAVDYVDRYLESSNVECSTDNFQLVGTAALFIAAKYEEIYPPKCIDFAHLTDSAFTCDNIRTMEVLIVKYIGWSLGPITSIQWLSTYLQLLGTGKKNKSDHYEEQNMYVPELLRSEYLEMCKILDFLLFEIDSFTFSYRTIAAAVLFVNYEPTCAVEKATGFMQAQLEKVIEYVEPVCRAFAKQRQLLDDVIPKHESIKSDDSHNIQVYVKRSSMEPIVKSERERIQHLKARRLHPQRLF | not soluble
